B1: TPR t1 (parent)
chain: GACCAAUCUGCCCUCAGAGCUCGAGAACAUCUUCGGAUGCAGAGGAGGCAGGCUUCGGUGGCGCGAUAGCGCCAACGUCCUCAACCUCCAAUGCAUCCCACCACAUGAUGAUGCCUGAAGAGCCUUGGUUUUUUG

The variants in the series derive from B1. The experiment in a line: polymerase ribozyme fitness, log enrichment relative to wild type (log ratio); higher = more active; in vitro selection for triplet polymerase activity. A digest of the protocol:
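Both subunits of a heterodimeric triplet polymerase ribozyme were given their own mutant library, built by PCR and transcribed. Each library was annealed with a biotinylated primer, the partner subunit and triplets, incubated frozen at −7 °C, and its extended constructs gel-excised, captured on streptavidin beads and amplified by RT-PCR, all in one round done in triplicate. Fitness is the logarithm of genotype enrichment relative to wild-type enrichment, with replicates averaged by inverse-variance weighting. That logarithm is base 2, and Illumina-sequenced genotypes needed ≥10 input reads and ≥1 read per output.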
Regarding GUCCAAUCUGCCCUCAGAGCUCGAGAACAUCUUCGGAUGCAGAGGAGGCAGGCUUCGGUGGCGCGAUAGCGCCUACGUCCUUAACCUCCAAUGCAUCCCACCACAUGAUGAUGCCUGAAGAGCCUUGGUUUUUUG [A2U A74U C82U], the “polymerase ribozyme fitness (log ratio)” value was -3.62. Next, GGCCAAUCGGCCCUCAGAGCUCGAGAACAUCUUCGGAUGCAGAGGAGGCAGGCUUUGGUGGCGCGAUAGCGCCAACGUCCUCAACCUACAAUGCAUCCCACCACAUGAUGAUGCCUGAAGAGCCUUGGUUUUUUG [A2G U9G C56U C88A]: -1.54; GGCCAAUCUGCCCGCAGAGCUCGAGAACAUCUUCGGAUGCAGAGGAGGCAGGCUUCGGUGGCGCGAUAGAGCCAACGUCCUCAACCUCCAAUGCAUCCCAGCACAUGAUGAUGCCUGAAUAGCCUUCGUUUUUUG [A2G U14G C70A C101G G120U G127C]: -3.71. Under GUCCAAUCUGCCCUCAGUGCUCGAGAACAUCUUCGGAUGCAGAGGAGGCAGGCUUCGGUGGCGCGAUAGCGCCAACGUCCUCAACCUCCAAUGCAUCCCACCACAUGAUGAUGCCUGAAGAGCAUUGGGUUUUUG [A2U A18U C124A U129G] stands -2.31; under GUCCGAUCGGCCCUCAGAGCUCGAGAACAUCUUCGGAUGCCGAGGAGGCAGGCUUCGGUGGCGCGAUAGCGCCAACGUCCUCAACCUCCAAUGCAUCCCACCACAUGAUGAUGCCUGAAGAGCCUUGGUUUUUUG [A2U A5G U9G A41C], -2.01.

As to GUCCAAUCUGCCCUCAGAGCUCGAGAACAUCUUCGGAUGCAGAGGAGGCAGGCUUCGGUGGCGCGAUAGCGCCAACGUCCUCAACCUCCAAUGCAUCCCUCCACAUGAUGAUGCCUGAAGAGCCUUGGUUUUUUG [A2U A100U], the “polymerase ribozyme fitness (log ratio)” value is -3.18.

In the case of GUCCAAUCUGCCCUCAGAGCUCGAGAACAUCUUCGGAUGCAGAGGAGGCAGGCUUCGGUGGCGCGAUAGCGCCAACGUCCUCAACCUCCAAUGCAUCCCACCACAUGAUGAUGCCUGAAGAGCCUUGGUUUUUUG [A2U], the “polymerase ribozyme fitness (log ratio)” value is -2.07. Next, GUCCUAUAUGCCCUCAGAGCUCGAGAACAUCUUCGGAUGCAGAGGAGGCAGGCUUCGGUGGCGCGAUAGCGCCAACGUGCUCAACCUCCAAUGCAUCCCACCACAUGAUGAUGCGUGAAGAGCCUUGGUUUUUUG [A2U A5U C8A C79G C115G]: -5.43; GUCCAAUCUGCCCUCAGAGCUCGAGAACAUCUUCGGAUGCAGAGGAGGCUGGCUUCGGUGGCGCGAUAGCGCCAACGUCCUCAACCUCCAAUGCCUCCCACCACAUGAUGAUGCCUGAAGAGCAAUGGUUUUUUG [A2U A50U A95C C124A U125A]: -2.49; GGCCAAUCUGCCCUCAGAGCUCGAGAACAUCCUCGGAUGGAGAGGAGGAAGGCUUCGGUGGCGCGAUGGCGCUAACGUCCUCAACCUCCAAUGCAUCCCACCACAUGAUGAUGCCUGAAGAGCCUUGGUUUUUUG [A2G U32C C40G C49A A68G C73U]: -5.24. For the variant GGCCAAUCUGCCCUCAGAGCUCGAGAACAUCUUCGGAUGCAGAGGAGGCAGGCUUCGGUGGCGCGAUAGCGCCAACGUCCUCAACCUCCAAUGCAUCCCACCACAGGAUGAUGCCUGAAGAGCCGUGGUUUUUUG [A2G U106G U125G], the “polymerase ribozyme fitness (log ratio)” value was -2.92. GGCCAACCUUCCCUCAGAGCUCGAGAACAUCUUCGGAUGCAGAGGAGGCAGCCUUCGGUGGCGCGAUAGCGCCAACGUCCUCAACCUCCAAUGCAUCCCACCACAUGAUGAUGCCUGAAGAGCCUUGGUUUUUUG [A2G U7C G10U G52C]: the “polymerase ribozyme fitness (log ratio)” value is -1.99. Under GUCCAAUCUGCCCUCAGAGCUCGAGAACAUCUUCGGAUGCAGAGGAGGCAGGCUUCGGUGGCGCGAUAGCGCCAACGUCCUCAACCUCCAAUGCAUCCCUCCACAUGAUGAUGCCCGAAGAGCCUUGGUUUUUUG [A2U A100U U116C] stands -3.73; under GUCCCAUCUGCCUUCAGAGCUCGAGAACAUCUUCGGAUGCAGAGGAGACAGGCUUCGGUGGCGCGAUAGAGCCAACGUCCUCAACCUCCAAUGCAUCCCACCACAUGAUGAUGCCUGAAGAGCCUUGGUUUUUUG [A2U A5C C13U G48A C70A], -4.35; under GGCCAAUCUGCCCUCAGAGCUCGAGAACAUCUUCGGAUGCAGAGGAGGCAGGCUUCGGUGGCGCGAUAGCGCCAACGUCCUCAACCGCCAAUGCUUCCCACCACAUGAUAAUGCCUGAAGAGCCUUGGUUUUUUG [A2G U87G A95U G110A], -0.979. Under GUCCAAUCUGCCCUCAGAGCUCGAGAACAUCUUCGGAUGCAGAGGAGGCCGGCUUUUGUGGUGCGAUAGCGCCAACGUCCUCAACCUCCAUUGCAUCCCACCACAUGAUGAUGCCUGAAGAGCGUUCCUUUUUUG [A2U A50C C56U G57U C62U A91U C124G G127C G128C] stands -4.5; under GUCCAAUCUGCCCUCUGAGCUCGAGAACAUCUUCGGAUGCAGAGAAGGCAGGCUUCGGUGGCGCGAUAGCGCCAACGUCCUCAACCCCCAAUGCAUCCCACCACAUGAUGAUGCCUGAAGCGCCUUGGUUUUUUG [A2U A16U G45A U87C A121C], -2.88; under GUCCAAUCUGCCCUCAGAGCUCGAGAACAUCUUCGGAUGCAGAGGAGGCCGGCUUCGGUGGCGCGAUAGUGCCAACGUCCUCAACCUCCAAUGCAUCCCAUCACAUGAUGAUGCCUGAAGAGCCUUGGUUUUUUG [A2U A50C C70U C101U], -3.18.

For the variant GUCCAAUCUGCCCUCAGAGCUCGAGAACAUCUUCGGAUGCAGAGGAGGCUGGCUUUGGUGGCGCGAUAGCGCCAACGUCCUCAACCUCCAAUGCAUCCCACCACAUGAUGAUGCCUGAAGAGCCUUGGUUUUUUG [A2U A50U C56U], the “polymerase ribozyme fitness (log ratio)” value was -3.13. Under GUCCAAUCUGCCCUCAGAGCUCGAGAACAUCUUCGGAUGCGGAGGAGGCAGGCUACGGUGGCGCGAUAGCGACAACGUCCUCAACCUCCAAUGCAUCCCACCACAUGAUGAUGCCUGAAGAGCCUUGGUUUUUUG [A2U A41G U55A C72A] stands -2.61.

As to GUCCAAUCUGCCCUCAGAGCUCGAGAUCAUCUUCGGAUGCAGAGGAGGCAGGCUUCGGUGGCGCGAUAGCGCCCACGUCCUCAACCACCAAUGCAUCCCACCACAUGAUGAAGCCUGAAGAGCCUUUGUUUUUUG [A2U A27U A74C U87A U112A G127U], the “polymerase ribozyme fitness (log ratio)” value was -2.94.

Values taken from the RNAGym collection of RNA variant scans (doi:10.1073/pnas.2313332121).
